Biological target: T1, drRecJ R109A (Deinococcus radiodurans, UniProt D0EM60 1-705, R109A)
T1 sequence: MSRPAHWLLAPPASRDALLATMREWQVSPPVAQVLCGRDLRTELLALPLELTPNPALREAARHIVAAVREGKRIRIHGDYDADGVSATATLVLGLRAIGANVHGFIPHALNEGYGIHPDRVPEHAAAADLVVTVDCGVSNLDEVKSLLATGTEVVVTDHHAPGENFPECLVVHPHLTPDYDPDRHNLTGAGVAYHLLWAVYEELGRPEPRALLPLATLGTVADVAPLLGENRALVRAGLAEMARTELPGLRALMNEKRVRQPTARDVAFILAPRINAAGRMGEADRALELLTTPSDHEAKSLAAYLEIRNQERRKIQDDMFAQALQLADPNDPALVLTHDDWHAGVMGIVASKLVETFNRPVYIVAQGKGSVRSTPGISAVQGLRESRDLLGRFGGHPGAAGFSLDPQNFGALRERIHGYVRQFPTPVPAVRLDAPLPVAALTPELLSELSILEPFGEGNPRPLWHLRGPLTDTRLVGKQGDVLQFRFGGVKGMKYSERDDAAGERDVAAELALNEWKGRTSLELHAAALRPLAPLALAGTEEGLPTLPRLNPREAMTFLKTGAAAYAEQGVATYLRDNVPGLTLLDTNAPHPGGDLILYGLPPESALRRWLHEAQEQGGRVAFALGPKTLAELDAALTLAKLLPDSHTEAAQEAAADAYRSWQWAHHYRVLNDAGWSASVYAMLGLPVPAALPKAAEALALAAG
Experiment: EMSA; no Mn2+ added; EMSA: 10 nM 3'-6-FAM ssDNA, 50 mM Tris-HCl pH 7.5, 150 mM KCl, 0.1 mg/ml BSA, 1 mM DTT, 5% glycerol, 20 min at 30 C; 8% native PAGE in TBE; Hill fit
Details: protein: recombinant; tags: tag removed with TEV; label: 3'-6-FAM

AAAAAAAAAAAAAAAAAAAA (ssDNA, 5'-P-dSpacer (tetrahydrofuran abasic, 5'-dRP mimic) added before A1) [KY11, 5'-P-dSpacer-(dA)20]
binding signal: 2 fold reduction

— publication PMC7515722, “Participation of RecJ in the base excision repair pathway of Deinococcus radiodurans”
